Where no end group is shown, it is not given here. [ ]: non-standard residue; d: D form. sY = N[C@@H](Cc1ccc(OS(=O)(=O)O)cc1)C(=O)O
Legend:
human prothrombin [1] = molecular target: T1, human prothrombin (human, UniProt P00734 44-622); assay: cell-based or functional assay
human prothrombin [2] = molecular target: T1, human prothrombin; assay: calculated from IC50 of prothrombinase inhibition, IC50=Ki(1+S0/Km), Km 0.4 µM, prothrombin 350 nM
Description: The buffer used in all cases was composed of 20 mM Hepes, 0.15 M NaCl, 5 mM CaCl₂, pH 7.4 [HBS(Ca²⁺), “assay buffer”]. […] All experiments were performed in triplicates or as indicated. The concentration of each peptide given in the figures and figure legends is their final concentration in the assay. The data were stored using the software FL WinLab (Perkin-Elmer Corp, Norwalk Conn.) and further analyzed and plotted with the software Prizm (GraphPad, San Diego, Calif.). In some cases the data were also analyzed and plotted using DeltaGraph (DeltaPoint, Monterey, Calif.).

human prothrombin [3] = molecular target: T1, human prothrombin; assay: calculated from IC50 (1.6 µM) of prothrombinase inhibition, IC50=Ki(1+S0/Km)
Description: All experiments were performed in triplicates or as indicated. The concentration of each peptide given in the figures and figure legends is their final concentration in the assay. The data were stored using the software FL WinLab (Perkin-Elmer Corp, Norwalk Conn.) and further analyzed and plotted with the software Prizm (GraphPad, San Diego, Calif.). In some cases the data were also analyzed and plotted using DeltaGraph (DeltaPoint, Monterey, Calif.).

human prothrombin [4] = molecular target: T1, human prothrombin; assay: kinetic analysis of prothrombinase inhibition
[5] = molecular target: T2, N-alpha-[(acetylthio)acetyl]-Phe-Pro-Arg-thrombin (ATA-FPR-thrombin) coupled to agarose through the active … (UniProt P00734 328-622); assay: chromatography on 2.5 ml thrombin-agarose, A280
Description: (§1) Since some of the peptides contain aromatic amino acid residues, their concentration was also measured by optical density.
(§2) Each run represents 400 μg of peptide. […] Elution was performed with 2M NaCl and was started at the point indicated by the arrow (fraction #30). The presence of the peptides in the corresponding fractions was monitored by absorbance at 280 nm (shown on the y axis) and by LC/MS (inset).

[6] = molecular target: T2, N-alpha-[(acetylthio)acetyl]-Phe-Pro-Arg …; assay: chromatography on 2.5 ml thrombin-agarose, LC/MS of fractions
Description: as §1, §2

[7] = molecular target: T2, N-alpha-[(acetylthio)acetyl]-Phe-Pro-Arg …; assay: chromatography on 2.5 ml thrombin-agarose, LC/MS of fraction #7 (before the salt elution)
Description: as §1, §2

EESDADYDYQ (Synthetic 10-residue peptide) [HC3 peptide (amino acid region 690-699 of human factor Va heavy chain)]
IC50 of inhibition of prothrombinase activity (DAPA thrombin formation assay) (human prothrombin [1]): 12 µM
Ki (human prothrombin [2]): 6.3 µM

DYDYQNRLAA (Synthetic 10-residue peptide) [HC4 peptide (amino acid residues 695-704 of human factor Va heavy chain)]
IC50 of inhibition of prothrombinase activity (DAPA thrombin formation assay) (human prothrombin [1]): 10 µM
Ki (human prothrombin [2]): 5.3 µM

B1: pentapeptide DYDYQ (Asp695-Tyr696-Asp697-Tyr698-Gln699 of human factor Va heavy chain) (peptide)
peptide: DYDYQ
notes: Synthetic, non-sulfonated pentapeptide; also called D5Q
Ki (human prothrombin [3]): 0.85 µM
IC50 of inhibition of prothrombinase function (human prothrombin [1]): 1.6 µM

B2: double sulfonated peptide DYDYQ (1, 2), DY(-SO3)DY(-SO3)Q (peptide)
peptide: D[sY]D[sY]Q
notes: Sulfonated form of the factor Va 695-699 motif; also called D5Q1,2
binding result (human prothrombin [4]): binds

B3: P15H control pentadecapeptide (amino acid sequence 337-351 from the middle portion of human factor Va heavy chain) (peptide)
peptide: PVIPANMDKKYRSQH
notes: Negative control peptide; also called control peptide
binding result [5]: no binding (tested: 400 µg of peptide)

KMHDRLEPED (First of five overlapping 10-mers) [HC1 peptide (from region 680-709 of human factor Va heavy chain)]
binding result [6]: no binding (tested: 400 µg of peptide)

LEPEDEESDA [HC2 peptide (from region 680-709 of human factor Va heavy chain)]
binding result [6]: no binding (tested: 400 µg of peptide)

NRLAAALGIR (Last of five overlapping 10-mers) [HC5 peptide (from region 680-709 of human factor Va heavy chain)]
binding result [7]: no binding (tested: 400 µg of peptide)
